In US10501734B2, “Compositions and methods of use thereof for making polypeptides with many instances of nonstandard amino acids” (Yale University, priority 2014, dated 2019):
Where a chain is given by its changes, count along the chain named. Names and notes keep the numbering of the source. “Also recorded” adds a separate entry of the source.

B1: pAcFRS.1.t1: pAcFRS variant A167D, R257G, SEQ ID NO: 5 (protein)
chain: MDEFEMIKRNTSEIISEEELREVLKKDEKSALIGFEPSGKIHLGHYLQIKKMIDLQNAGFDIIILLADLHAYLNQKGELDEIRKIGDYNKKVFEAMGLKAKYVYGSEFQLDKDYTLNVYRLALKTTLKRARRSMELIAREDENPKVAEVIYPIMQVNGCHYRGVDVDVGGMEQRKIHMLARELLPKKVVCIHNPVLTGLDGEGKMSSSKGNFIAVDDSPEEIRAKIKKAYCPAGVVEGNPIMEIAKYFLEYPLTIKGPEKFGGDLTVNSYEELESLFKNKELHPMRLKNAVAEELIKILEPIRKRL
B2: pAzFRS.2.t1: pAcFRS variant E107T, F108Y, Q109M, R257G, SEQ ID NO: 14 (protein)
chain: B1 chain with E107T, F108Y, Q109M, D167A
B3: pAcFRS: progenitor M. jannaschii based p-acetyl-L-phenylalanine AARS, SEQ ID NO:1 (Young, et al., 2010) (protein, listed as Methanocaldococcus jannaschii)
chain: B1 chain with D167A, G257R
B4: pAcFRS.2.t1: pAcFRS variant L65V, A167D, R257G, SEQ ID NO: 8 (protein)
chain: B1 chain with L65V
B5: pAzFRS.1.t1: pAcFRS variant D158V, I159M, L162D, A167Y, R257G, SEQ ID NO: 11 (protein)
chain: MDEFEMIKRNTSEIISEEELREVLKKDEKSALIGFEPSGKIHLGHYLQIKKMIDLQNAGFDIIILLADLHAYLNQKGELDEIRKIGDYNKKVFEAMGLKAKYVYGSEFQLDKDYTLNVYRLALKTTLKRARRSMELIAREDENPKVAEVIYPIMQVNVMHYDGVDVYVGGMEQRKIHMLARELLPKKVVCIHNPVLTGLDGEGKMSSSKGNFIAVDDSPEEIRAKIKKAYCPAGVVEGNPIMMEIAKYFLEYPLTIKGPEKFGGDLTVNSYEELESLFKNKELHPMRLKNAVAEELIKILEPIRKRL

Key:
GFP(3TAG) = assay: nsAA library screening, GFP(3TAG) fluorescence in 384 well plates; type: cell-based, E. coli; conditions: GFP(3TAG) production in the presence of pAcF, pAzF and 236 other nsAAs
Procedure: Liquid cell cultures of strains harboring chromosomally integrated OTSs and GFP reporter plasmids were inoculated from frozen stocks and grown to confluence overnight. Cultures were then inoculated at 1:20 dilution in LBmin media supplemented with 30 μg/ml kanamycin. Strains were inoculated by addition of 1:20 confluent cell culture (grown overnight) and allowed to grow at 34° C. to an OD600 of 0.5-0.8 in a shaking plate incubator at 650 r.p.m (˜3 h). AARS expression was then induced by the addition of 0.2% arabinose, GFP expression was induced by the addition of 60 ng/ul anhydrotetracycline, and the appropriate nsAA was added to a concentration of 1 mM. Cells were incubated at 34° C. for an additional 16 h. Liquid cell cultures of strains harboring plasmid-based OTSs and GFP or ELP-GFP reporter plasmids were inoculated from frozen stocks and grown to confluence overnight. Cultures were then inoculated at 1:20 dilution in 2×YT media supplemented with 30 μg/ml kanamycin and 20 μg/ml chloramphenicol. […] Cells were allowed to grow at 34° C. to an OD600 of 0.5-0.8 in a shaking plate incubator at 650 r.p.m (˜3 h), reporter protein expression was then induced by the addition of 60 ng/ul anhydrotetracycline, and cells were incubated at 34° C. for an additional 16 h.
For 384 well plate-based assays, fluorescence and OD600 were directly measured following expression. For 96 well plate-based assays, cells were centrifuged at 4,000 g for 4 min. Supernatant medium was removed and cells were resuspended in PBS. This process was repeated twice with PBS. GFP fluorescence was measured on a Biotek spectrophotometric plate reader using excitation and emission wavelengths of 395 and 509 nm, respectively). Fluorescence signals were normalized by dividing the fluorescence counts by the OD600 reading. The nsAAs used in this study were purchased from Sigma-Aldrich (St. Louis, Mo.), Chemlmpex (Wood Dale, Ill.), and Bachem (Torrance, Calif.). Solutions of nsAAs (50 mM) were made in water or 50 mM NaOH; these stock solutions were diluted 50- or 100-fold (to 1 mM final concentration) into medium used for bacterial growth. […]

TAG codons = assay: MRM mass spectrometry quantitation of nsAA incorporation in ELP-GFP; design: species or system E. coli; conditions: for pAcF (Y) / pAcF: calculated as 100%−Y %−F %; for near cognate suppression and mischarging events of K, P, L/I, and Q: content in proteins produced
Procedure: Purified ELP-GFP protein was dissolved by vortex in protein solubilization buffer (15 mM Tris-HCl, 1.5 mM EDTA, pH=8.5) and the protein concentration was determined by UV280. Solubilization buffer was then added to adjust the concentration of the protein stock solutions to 2.0 μg/μl. For protein digestion, 12.5 μl of this solution (25 μg) was supplemented with 3.125 μl freshly prepared digestion buffer 5×. The composition of the digestion buffer 5× was: 50 mM Tris-HCl pH=8.5, 5 mM EDTA, 50 mM DTT and 2.5% (w/v) freshly prepared acid labile surfactant II (ALS II). Proteins were thermally denatured in a heat block at 95° C. for 5 min and the reaction was then quenched on ice. To alkylate the cysteines, 2.5 μl of 1 M Tris-HCl buffer (pH=8.5) and 5.83 μl freshly prepared 100 mM IAA solution were added. The reaction proceeded for 30 min at room temperature and in the dark. Excess IAA was quenched with 0.875 μl of 200 mM aqueous DTT solution. Next, 1.25 μl LysC enzyme solution, prepared at 7.0×10^−4 activity units/μl in water, were added and protein was digested for 4 h at 37° C. in an incubator without shaking. The digest was supplemented with 157.77 μl 105.6 mM Tris-HCl pH=8.5 buffer containing 5.28 mM CaCl2. For digestion with trypsin, 3.6 μl sequencing grade porcine trypsin (Promega), provided as solution with 0.5 μg/μl trypsin, was added and digestion proceeded for 15 h at 37° C. in an incubator without shaking. The digest was quenched by adding 15.63 μl 20% TFA solution. The pH value of the digest was tested with pH indicator paper to ensure that the pH value was between a value of 1 and 2 to ensure efficient cleavage conditions for ALSII. Detergent was hydrolyzed for 15 min at 23° C. and peptides were desalted using C18 UltraMicroSpin columns (The Nest Group, Southborough, Mass.) following the instructions provided with the columns. Eluted peptides solutions were dried in a vacuum centrifuge which was operated at 45° C. The dried peptides were then dissolved by vortex in 11 μl peptide solvent consisting of 2:3:7 by volume 70% FA, 1-propanol and 0.5% acetic acid. The peptide concentration was determined by UV280 enabling equal loading for LC-MS. Peptide stock solutions were frozen at −80° C. until use. For shotgun proteomic analysis, peptide stock solutions were diluted to a concentration of 60 ng/μl in 3:8 by volume 70% formic acid 0.1 TFA and 5 μl corresponding to 300 ng total peptides were injected for each analysis.
The C-terminally labeled stable isotope labeled peptides (lysine (^13C6^15N2) or arginine (^13C6^15N4)) VPGAGVPGYGVPGVGK, VPGAGVPGFGVPGVGK and FEGDTLVNR were obtained as a lyophilized powder supplied as 1 nmol aliquots. Peptides were dissolved in 30% acetonitrile 0.1% formic acid at a concentration of 20 pmol/μl. Standards were then combined to obtain a master mix with 6.666 pmol/μl of each peptide. Dilution of peptide standards and protein digest for MRM was performed in Agilent polypropylene sample vials with MRM solvent consisting of 100 ng/μl sodium deoxycholate in 3:7 by volume DMSO/0.1% formic acid. Calibration of the instrument was performed with a 11 point calibration curve with 0, 1, 2, 5, 10, 20, 50, 100, 200, 500 and 1000 fmol peptide injected. Peptide stock solutions from the digestion of ELP-GFP were prepared at 5 ng/μl in MRM solvent containing 50 fmol/μl of the stable isotope labeled peptides. MRM solvent blank injections between sample injections and quality control standards analyzed before and after sample injection ensured consistent performance of the MRM platform.
Shotgun discovery data from the analysis of stable isotope labeled peptides and ELP-GFP digests were imported into Skyline^2 software v. 2.5 to extracted suitable transitions for MRM quantitation of peptides. A detailed description of this workflow will be reported somewhere else^3. Briefly, at least 3 transitions were extracted for peptides reporting incorporation of natural and unnatural amino acids at the position of the stop codon. […]

[1] = ELP(10TAG)-GFPMS, nsAA added pAcF
[2] = ELP(30TAG)-GFPMS, nsAA added pAcF
[3] = ELP(10TAG)MS-ELP(20TAG)-GFP, nsAA added pAcF
[4] = ELP(20TAG)-ELP(10TAG)MS-GFP, nsAA added pAcF
[5] = ELP(10TAG)-GFPMS, nsAA added pAzF, N = 3

Molecule	nsAA specificity (polyspecificity) (GFP(3TAG))	F at TAG position (TAG codons; [1]) [%]	Y at TAG position (TAG codons; [1]) [%]	pAcF (Y) (TAG codons; [1]) [%]	F at TAG position (TAG codons; [2]) [%]	Y at TAG position (TAG codons; [2]) [%]	pAcF (TAG codons; [2]) [%]	near cognate suppression and mischarging events of K, P, L/I, and Q (TAG codons)	F at TAG position (TAG codons; ELP(10TAG)-GFPMS, No nsAA) [%]	Y at TAG position (TAG codons; ELP(10TAG)-GFPMS, No nsAA) [%]	pAcF (Y) (TAG codons; ELP(10TAG)-GFPMS, No nsAA) [%]	F at TAG position (TAG codons; [3]) [%]	Y at TAG position (TAG codons; [3]) [%]	pAcF (TAG codons; [3]) [%]	F at TAG position (TAG codons; [4]) [%]	Y at TAG position (TAG codons; [4]) [%]	pAcF (TAG codons; [4]) [%]	F at TAG position (TAG codons; [5]) [%]	Y at TAG position (TAG codons; [5]) [%]
B1	polyspecifity for at least pAcF, pAzF, StyA, 4IF, 4BrF, 4ClF, 4MeF, 4Cf3F, MeY, 4NO2F, 4BuF, BuY, 2NaA, PheF	0.26	2.42	97.32	0.29	1.53	98.18	striking decrease	–	–	–	–	–	–	–	–	–	–	–
B2	polyspecific for at least pAcF, pAzF, StyA, 4IF, 4BrF, 4ClF, 4MeF, 4Cf3F, MeY, 4NO2F, 4BuF, BuY, 2NaA, PheF	2.45	2.08	95.47	2.87	1.78	95.35	striking decrease	55.35	50.15	−5.50	3.74	2.19	94.06	3.25	2.17	94.58	–	–
B3	–	0.36	1.37	98.26	0.55	1.14	98.31	–	–	–	–	–	–	–	–	–	–	–	–
B4	polyspecifity for at least pAcF, pAzF, StyA, 4IF, 4BrF, 4ClF, 4MeF, 4Cf3F, MeY, 4NO2F, 4BuF, BuY, 2NaA, PheF	–	–	–	–	–	–	–	–	–	–	–	–	–	–	–	–	–	–
B5	specific for pAzF; also recorded: exceptional specificity toward pAzF with almost complete exclusion of any other nsAA	–	–	–	–	–	–	–	–	–	–	–	–	–	–	–	–	3.34	0.13
